The text below walks through data of the supplement of paper PMC10567573.

This data set can be described thus: protein stability index of a GFP-peptide fusion (GPS, HEK-293T) (PSI 1-6); higher = more stable.
The mark [1] stands for this setting: treatment: DMSO, c terminus: a fixed tail appended.
[2] abbreviates: treatment: MLN4924 1 uM, 8 h, c terminus: a fixed tail appended.

± gives the standard deviation.
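Also: 24-mer peptide tiles fused after GFP, lentivirally expressed, FACS-sorted into six equal bins by GFP/DsRed ratio, decoded by Illumina sequencing, PSI is the read-weighted mean bin number.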

VKYIVERTMLDFPQHVSSDKEVRA [NLN] returned a protein stability index under setting [1] of 2.82 ± 0.36 and a protein stability index under setting [2] of 2.69 ± 0.25. The corresponding values for VLCLIVLPLALYTATFAVHFMVLS [POMT2] are 3.17 ± 0.19 and 3.34 ± 0.43. For VLFAVGGWCSGDAISSVERYDPQT [KLHL20], the protein stability index is 2.12 ± 0.21 under setting [1] and 2.29 ± 0.15 under setting [2].

As to VLHIVASLIILHLSGATKKGTEKQ [NETO1], the protein stability index was 2.78 ± 0.57 under setting [1] and 2.9 ± 0.65 under setting [2].

Regarding VLLGEPLVVMAPSPSESSETVLAL [DENND6A], the protein stability index is, setting by setting: under setting [1], 2.82 ± 0.36; under setting [2], 2.52 ± 0.34. The corresponding values for VMSGKMSVSKAQSIYGIPHSTLEY [LCOR] are 2.38 ± 0.19 and 2.23 ± 0.076. The corresponding values for VNLFLHFTVNPKPRVEYIDRPRCC [BTBD1] are 3.43 ± 0.18 and 3.12 ± 0.28.

Turning to VNQPNNNGFTPLHFAAASTHGALC [ANKRD44], the protein stability index reads like this: under setting [1], 2.99 ± 0.3; under setting [2], 3.06 ± 0.33. The like results for VQERLTKQIAVAITEALRPAGVGV [GCH1] were, in that order, 2.23 ± 0.2 and 2.17 ± 0.13. The corresponding values for VQLIDDFKISGMNGIHVCMVFEVL [SRPK2] are 2.73 ± 0.62 and 2.71 ± 0.32. Turning to VQRLTSRAARDYKIQNHGHRVLQR [FCHSD1], the protein stability index runs as follows: under setting [1], 3.33 ± 0.08; under setting [2], 3.44 ± 0.1. The like results for VQRTQSVPVRRPARRRQSAGPWPR [RASAL3] were, in that order, 4.55 ± 0.26 and 4.48 ± 0.096. As for VRDGFSATFEKILESELLRGTQYS [PSD2], the protein stability index amounted to 2.29 ± 0.35 under setting [1] and 2.31 ± 0.12 under setting [2]. The corresponding values for VRTLEGVFQHHQYLSPLERKRLAR [VENTX] are 3.23 ± 0.23 and 3.54 ± 0.47.

As to VRTMQNTNDVETARCTAGTLHNLS [CTNNB1], the protein stability index under setting [1] was found to be 3.57 ± 0.33 and the protein stability index under setting [2] was 3.81 ± 0.32. Turning to VSAYVDTTADLDRKLSFSHSDHSS [SPATS1], the protein stability index is, setting by setting: under setting [1], 3.83 ± 0.1; under setting [2], 4.08 ± 0.24. The corresponding values for VSISIISSTSGGSGYGFRPSMVSG [KRT71] are 2.84 ± 0.52 and 3.01 ± 0.93. Take VSKTLPSTWSDPSVNISLDNLLPG [CLINT1]: the protein stability index by setting is: under setting [1], 3.35 ± 0.17; under setting [2], 3.56 ± 0.16. Consider VSLGQKLVAAYVLGLLTMVFLRT [MOSPD3], for which the protein stability index is, setting by setting: (treatment: DMSO, c terminus: native) 2.56 ± 0.71; (treatment: MLN4924 1 uM, 8 h, c terminus: native) 2.07 ± 0.42. Consider VTDCKHTEDVGVVCSDKRIPGFKF [LOXL2], for which the protein stability index turned out to be 3.61 ± 0.35 under setting [1] and 3.77 ± 0.16 under setting [2]. In the case of VTDINDNAPKFQAENLDVKINENV [PCDHGA10], the protein stability index under setting [1] was 5.22 ± 0.1 and the protein stability index under setting [2] turned out to be 5.01 ± 0.37. The corresponding values for VTLIVDNTRFVVDPSIFTAQPNTM [BTBD10] are 2.84 ± 0.51 and 3.2 ± 0.74. As for VTLKYEIKKLIYVHLVIWLLLVAK [JAGN1], the protein stability index reads like this: under setting [1], 2.33 ± 0.52; under setting [2], 2.27 ± 0.3. The like results for VVAEAQTRVSQLGLQVEGLRRRLE [LRRC45] were, in that order, 3.71 ± 0.4 and 3.82 ± 0.51. The corresponding values for VVAVDRDSGQNAWLSYRLLKASEP [PCDHGA10] are 2.56 ± 0.17 and 2.6 ± 0.31. As for VVKVISTIPATLLVDHVGSKTFLC [SLC2A12], the protein stability index worked out at 2.95 ± 0.43 under setting [1] and 2.75 ± 0.37 under setting [2]. As for VVPSYIPLVKKHCDDSFTPQEKLW [CPOX], the protein stability index was 2.93 ± 0.15 under setting [1] and 2.98 ± 0.35 under setting [2]. The like results for VVVKLLHPPSHWPLIKATVGLIRN [CTNNB1] were, in that order, 2.48 ± 0.66 and 2.51 ± 0.64. Turning to VWTNDQVVHWVQSIGLRDYAGNLH [PPFIA4], the protein stability index was 2.16 ± 0.53 under setting [1] and 2.11 ± 0.29 under setting [2]. On to VWWVSQFVKYLIRPQPWLEKEIEE [FUT8], for which the protein stability index is, setting by setting: under setting [1], 2.32 ± 0.46; under setting [2], 2.035 ± 0.002. For the sequence VYRAELVGELNGYLRDSSPAPCAD [PWWP2B], the protein stability index was determined as 3.31 ± 0.21 under setting [1] and 3.52 ± 0.27 under setting [2].

As for VYRDLKPENILLDRDGHIKLTDFG [PRKX], the protein stability index reads like this: under setting [1], 3.07 ± 0.28; under setting [2], 3.54 ± 0.24. Turning to VYSLEPRLCGGKGGFGSMLRALGA [SDE2], the protein stability index was 2.24 ± 0.45 under setting [1] and 2.1 ± 0.081 under setting [2]. The like results for WDLRDQSVVRDLKGYPDGVKSIVV [TLE6] were, in that order, 2.63 ± 0.25 and 2.63 ± 0.077. On to WKCKNARGQVGLVPKNYVVVLSDG [NCK2], for which the protein stability index runs as follows: under setting [1], 2.15 ± 0.26; under setting [2], 2.31 ± 0.45. The corresponding values for WMWLSCSSFFQQFFHCYCPVGFGR [CRY1] are 2.42 ± 0.2 and 2.4 ± 0.25. On to WVTFQVLLYTSLPDFCHKFLPGYV [DHCR7], for which the protein stability index turned out to be 3.4 ± 0.055 under setting [1] and 3.01 ± 0.91 under setting [2]. As to YADFERFSKVLEEAAAAEEGLREL [DAPK3], under setting [1], the protein stability index was 2.46 ± 0.18. With YAIAGYDGNSLLSSIECYDPIIDS [KLHL12], the protein stability index is, setting by setting: under setting [1], 2.83 ± 0.48; under setting [2], 3.01 ± 0.36. The like results for YDGLDCQARQFRTFHHPTYGSCYT [SCNN1D] were, in that order, 2.54 ± 0.1 and 2.59 ± 0.18. The corresponding values for YESDSSNHCMLSPSSSGHLADSDT [C18orf25] are 5.18 ± 0.33 and 5.28 ± 0.21.

The sequence YFTQTLLPGLAGPSGEMVKSTTSL [MLH1] registered a protein stability index under setting [2] of 2.51 ± 0.21. As to YHTSQSGDEMTSLSEYVSRMKETQ [HSP90AB1], the protein stability index came out at 3.9 ± 0.25 under setting [1] and 3.96 ± 0.23 under setting [2].

As for YIAAFLHVLLPVALEFQPQLVLVA [HDAC6], the protein stability index is, setting by setting: under setting [1], 3.25 ± 0.84; under setting [2], 3.14 ± 0.41. Take YKDTCHELDELQLCKNCFYLSNAR [ZMYND11]: the protein stability index is, setting by setting: under setting [1], 2.66 ± 0.31; under setting [2], 3.02 ± 0.25. The corresponding values for YKGLFEVNPWKREVKLLLSSETPI [APMAP] are 2.71 ± 0.3 and 2.14 ± 0.18. YKVRHVHWKTWLAIKCSPSLHVDD [RIPK4]: the protein stability index under setting [1] came to 2.16 ± 0.34 and the protein stability index under setting [2] stood at 1.98 ± 0.44.

Turning to YLEVAKHFKPHGFSSDKAKAGSSE [ATF4], the protein stability index turned out to be 3.97 ± 0.092 under setting [1] and 4.24 ± 0.33 under setting [2].

For YLGSAYHASKCEFLANLHITALLN [DUSP5], the protein stability index stood at 2.58 ± 0.69 under setting [1] and 2.61 ± 0.47 under setting [2].

Consider YLLDRAVDSFETQRNGLVFIYDMC [PTPN9], for which the protein stability index under setting [1] turned out to be 2.36 ± 0.47 and the protein stability index under setting [2] was determined as 2.29 ± 0.29.

Consider YLTIILILISFTCRFLLNSRVTDA [TMEM120A], for which the protein stability index reads like this: under setting [1], 3.19 ± 0.26; under setting [2], 3.12 ± 0.24.

On to YLTNCEKLSAKSLQTLRSFSHTLV [ZER1], for which the protein stability index under setting [1] stood at 2.3 ± 0.16 and the protein stability index under setting [2] was found to be 2.24 ± 0.38. The corresponding values for YMVRRYFNKPSRVPAPEAFRDPIW [MYORG] are 2.27 ± 0.25 and 2.12 ± 0.39. The like results for YNIRTDSWTTVTSMTTPRCYVGAT [KLHL12] were, in that order, 2.44 ± 0.23 and 2.67 ± 0.33. The corresponding values for YNSFHKLRDRAERIASRAIDNAAD [SNX8] are 3.98 ± 0.43 and 4.14 ± 0.38. Consider YQGLPVRCVKSIIRQVLQGLDYLH [SRPK2], for which the protein stability index was 2.45 ± 0.27 under setting [1] and 2.59 ± 0.41 under setting [2].

Turning to YQYFVCPVEYRSDVNSFVTECEPS [CDS1], the protein stability index runs as follows: under setting [1], 2.35 ± 0.26; under setting [2], 2.36 ± 0.37. YRGTLKRQPAFDTFDGSLFAVFPS [ETS2]: the protein stability index worked out at 2.31 ± 0.42 under setting [1] and 2.08 ± 0.14 under setting [2]. Take YSSEDSTLASVPPAATFGADDLVL [ELF3]: the protein stability index under setting [1] stood at 4.5 ± 0.13 and the protein stability index under setting [2] was found to be 4.48 ± 0.22. The like results for YTPTAEDSAQMQNGGPSTPPASPP [ANKRD40] were, in that order, 5.27 ± 0.22 and 5.16 ± 0.2. The like results for YVALFPCNECAKLIIQAGIKEVIF [DCTD] were, in that order, 2.73 ± 1.2 and 2.96 ± 0.54. The like results for YVDIQGLTASTMEILLDFVYTETV [KLHL12] were, in that order, 3.564 ± 0.008 and 3.1 ± 1.2. Turning to YYIPLVELVPHPETAPTTVDRTHA [CRYL1], the protein stability index worked out at 3.06 ± 0.28 under setting [1] and 3.1 ± 0.26 under setting [2].
